# Results taken from PMC10817188.
# B1: truncated BLIP-II (tBLIP-II), β-lactamase inhibitory protein-II without its signal sequence (natural protein)
# chain: ATSVVAWGGNNDWGEATVPAEAQSGVDAIAGGYFHGLALKGGKVLGWGANLNGQLTMPAATQSGVDAIAAGNYHSLALKDGEVIAWGGNEDGQTTVPAEARSGVDAIAAGAWASYALKDGKVIAWGDDSDGQTTVPAEAQSGVTALDGGVYTALAVKNGGVIAWGDNYFGQTTVPAEAQSGVDDVAGGIFHSLALKDGKVIAWGDNRYKQTTVPTEALSGVSAIASGEWYSLALKNGKVIAWGSSRTAPSSVQSGVSSIEAGPNAAYALKG
# Tests used:
# [1] = target: β-lactamase obtained from Bacillus cereus 569H (Bacillus cereus 569H)
# [2] = target: β-lactamase obtained from Bacillus cereus 569H (Bacillus cereus 569H); remark: listed apart in the source
# [3] = target: KPC-2 carbapenemase (Klebsiella pneumoniae carbapenemase 2) (Klebsiella pneumoniae (endogenous in ATCC BAA-1705)) (UniProt Q9F663)
# Chain of UniProt Q9F663 (Q9F663 25-293): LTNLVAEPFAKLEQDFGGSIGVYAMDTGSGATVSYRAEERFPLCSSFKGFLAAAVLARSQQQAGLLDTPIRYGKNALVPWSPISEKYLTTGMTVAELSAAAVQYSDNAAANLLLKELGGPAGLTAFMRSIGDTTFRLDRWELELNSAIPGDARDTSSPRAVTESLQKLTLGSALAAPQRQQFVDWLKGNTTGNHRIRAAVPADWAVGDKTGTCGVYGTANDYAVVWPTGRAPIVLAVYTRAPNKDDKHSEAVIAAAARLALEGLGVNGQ
binder,measurement,setting,value
B1,reduction in β-lactamase activity (nitrocefin hydrolysis) at 0.0625 μM inhibitor; constant at higher concentrations up to 2 μM,[1],70%
same,"IC50 of inhibition of nitrocefin hydrolysis by the β-lactamase (inhibitor 0.0078-2 μM, pre-incubated 15 min at 30°C, absorbance at 490 nM)",[2],51.1 nM
same,MIC of meropenem against K. pneumoniae ATCC BAA-1705 (bla KPC-2 positive) with 10 or 20 μM protein (16 μg/mL without protein; 8 at both concentrations),[3],8 µg/mL
